In the supplement of paper PMC10899765:

How the values were obtained:
Conditions in all cases: 20 nM; 72 h
MCF10A [1] = assay: percent viability (nuclei count relative to siNT); higher = more viable cells
Protocol: (§1)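 After 72 h, cells were fixed and stained with Hoechst and anti-fibrillarin, and nucleoli per nucleus were counted with CellProfiler. Values are plate-adjusted percent effect for the one-nucleolus and 5+ nucleoli phenotypes, normalised to siNT (0%) and to the positive controls siNOL11 or siKIF11 (100%), as the mean of biological triplicates. Percent viability is the nuclei count relative to siNT.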

MCF10A [2] = assay: 5+ nucleoli phenotype percent effect (relative to siNT 0% and siKIF11 100%); higher = more cells with five or more nucleoli
Protocol: as §1

MCF10A [3] = assay: one-nucleolus phenotype percent effect (relative to siNT 0% and siNOL11 100%); higher = more cells with one nucleolus (ribosome biogenesis inhibition)
Protocol: as §1

Sequence	percent viability (MCF10A [1])	5+ nucleoli phenotype percent effect (MCF10A [2])	one-nucleolus phenotype percent effect (MCF10A [3])
UGGGAGCUGGACUACUUC [hsa-miR-4300]	19.7%	16.1%	21.3%
AAGGGCUUCCUCUCUGCAGGAC [hsa-miR-3158-3p]	12.1%	-9.95%	32.8%
UGAAGUUACAUCAUGGUCGCUU [hsa-miR-4670-3p]	36.1%	-11.4%	2.16%
UCCUUUGCCUAUUCUAUUUAAG [hsa-miR-3121-5p]	56.5%	17%	-3.46%
UGUUUUGAUAACAGUAAUGU [hsa-miR-2052]	144%	5.44%	0.685%
ACUGGGAUGUCACUGAAUAUGGU [hsa-miR-6506-5p]	28.3%	-3.32%	25%
CUAGGUGGGGGGCUUGAAGC [hsa-miR-6802-5p]	33.9%	-17%	9.83%
CCCGGAGCCAGGAUGCAGCUC [hsa-miR-1203]	68.6%	4.95%	-10.2%
UAUUGCACAUUACUAAGUUGCA [hsa-miR-32-5p]	123%	9.82%	-7.37%
ACUGGCCUGGGACUACCGG [hsa-miR-3176]	54.4%	35.3%	-13.2%
UGCCCUGCCUGUUUUCUCCUUU [hsa-miR-3173-5p]	148%	35.2%	-24.3%
UGUGACAAUAGAGAUGAACAUG [hsa-miR-4504]	39.9%	-15.9%	30.4%
UCUCACCCCAACUCUGCCCCAG [hsa-miR-6784-3p]	56.5%	44.3%	-25.6%
GCCCCGGGCAGUGUGAUCAUC [hsa-miR-5587-3p]	108%	18.8%	-20.5%
UCAAGAGCAAUAACGAAAAAUGU [hsa-miR-335-5p]	79.4%	37.7%	-9.96%
GGUUCUUAGCAUAGGAGGUCU [hsa-miR-2116-5p]	35.2%	-5.52%	12.8%
CGGGCCGGAGGUCAAGGGCGU [hsa-miR-6781-5p]	46.3%	54.4%	-2.25%
CACACAAGUGGCCCCCAACACU [hsa-miR-4731-3p]	29.9%	-12.1%	8.2%
UGAGACCUCUGGGUUCUGAGCU [hsa-miR-769-5p]	47.4%	9.63%	7.1%
CUUUCAGUCGGAUGUUUACAGC [hsa-miR-30e-3p]	126%	14.5%	-11.8%
UUCACCCCUCUCACCUAAGCAG [hsa-miR-6802-3p]	63.6%	15.5%	-11.2%
ACUGGACUUGGAGUCAGAAGAGUGG [hsa-miR-378c]	22.4%	-4.56%	-8.35%
UAUUCAGGAAGGUGUUACUUAA [hsa-miR-506-5p]	91%	-1.47%	-9.8%
UGGCUUCUCUUGCACACCCAG [hsa-miR-6815-3p]	19.9%	-12.3%	62.9%
UGUCUACAUUAAUGAAAAGAGC [hsa-miR-3618]	66.2%	-1.03%	16.7%
